Laboratory results taken from patent US10801046B2, “Methods and materials for biosynthesizing multifunctional, multivariate molecules via carbon chain modification” (INVISTA NORTH AMERICA S.A.R.L., priority 2016, dated 2020).

B1: SEQ ID NO: 174: Candida tenuis aminotransferase (protein, listed as Candida tenuis)
chain: MNSSKSQICLATERQYSAKNYTPMPVVFKKAIGCKVWDVDDNEYLDFGGSYCATNQGHSHPKIVQALIDQAQICALPSRAFTHNLYGDYIKFVCQYFDFEKALPLNGGSEAIEFAIKLARAWGYTKKGISQNEAIVLFAANNYHGRTLGSTSASTTPGARKNYGPFLPKVGPYYGSEGKFIRYNHIEDIEEAFKTDGPNIAAIVLESLQGEAGIYVPKDGYLQQVKRLCEEYNILYIADEVQMGAGRTGTLLSCEQDGIKPDVLVVAKSIGGGVYPTSLVLSSGEIMDCIEPNSHGATFSGSPLSCATSKVALEVLIEDNMIDNAKHLGKIMLDGLNSIREKSSIITDVRGRGLMAGFDIDESQLNGKKVWHVCMLLRSKGIICKMVHAKTIRWAPALVITEEELRFGLRMLEQTINEITALEIADIPDAVTFDYLRY
modifications: Candida tenuis (strain ATCC 10573 / BCRC 21748 / CBS 615 / JCM 9827 / NBRC 10315 / NRRL Y-1498 / VKM Y-70)
notes: Candida tenuis aminotransferase
B2: SEQ ID NO: 180: Ramlibacter tataouinensis aminotransferase (protein, listed as Ramlibacter tataouinensis)
chain: MAYNDFDTGNHWLPFTPNRHFKKEPRVFVAADGMHFTTHDGRQVVDGISSLWCVGAGHNRKPINEAIKKQLDTLDYATAFNAANDQAFLAAQKIAAMAPGDLNKVLFCNSGSEAADTSMKVALAYHRARGEGHRNIFIGRERGYHGVGFGGMSVGGIPANRKVYGTALLPRVDHMRFIHDPANAYIHNQEPVSQEDYLLELEQRILPLHSPENVAAIIVEPVAGSAGWYLPPKGYLKRLREICDKHGILLIFDEVITGFGRMGTSFGADFYGVVPDMLNFAKCVTNGVIPLGGVICRDKLYDTMMKTDAPEHVIEFFHGYTYSGHPVSCAAAIATLDLYQKEGLFPRAGEMGKVLGDAFHSTFKGLPNVVGIRSLGLAAAVELAPIAGLPGKRAYDIYLDCFRKGALVRPAGDVVVIAPPYVVEKSHIDQLVNTLADSIRQHA
modifications: Ramlibacter tataouinensis (strain ATCC BAA-407 / DSM 14655 / LMG 21543 / TTB310)
notes: Ramlibacter tataouinensis aminotransferase
B3: SEQ ID NO: 176: Firmicutes bacterium CAG:24 aminotransferase (protein)
chain: MGELMQQYIDEAEQDLLHTYNRYQVVLDRGDGVSLYDIEGKRYLDFVAGIAVFALGYHNAEYNDALKAQIDKVIHTSNYYYNVPAVEAARHLKKVSRMDRVFFTNSGAEAIEGAIKAARKYAYLKDGTTDHEIIAMNHSFHGRTMGALSVTGNPHYREAFEPGIGNIRFADLNDFDSVLACVNDKTCAILLETVQGEGGIYPVQEDFLKKVRALCDEKDILLILDEIQCGMGRTGYWYAWQKYGVKPDIMTTAKALGCGVPVGAFLMTEKVGQHSLTAGDHGTTYGGNPLACAAVAKVLDLFEENNILEHVREVSAYLEEKLDSLAAKYDFITDRRGMGLMQGLVFDRPVAPVINAALENGLILINAGTNIIRFVPPLVITDADVDEMIEILDSCLKTFQEQNA
modifications: Firmicutes bacterium CAG:24
notes: Firmicutes bacterium CAG:24 aminotransferase
B4: SEQ ID NO: 179: Sphingobacterium spiritivorum ATCC 33861 aminotransferase (protein)
chain: MIKEATVHERLAKHILADGLPLVIDLEKSHDSYIVDIEGNEYLDMFSMFASSPIGYNHPHIVKNSDLLKKVAINKLALSDIYPREFADFVDTFERVAIPAELSYCFFIDGGALAVENALKAAFDWKTRLNISRGIQQEASEVIHFKQAFHGRTGYTLSLTNTKDPRKYMYFPKFDWPRITNPKLHFPLTEESVTETIKAEQQAIQEIEAAIAKNPDAIACLILEPIQAEGGDNHFRTEFFQELRRICDDHDILLILDEVQTGLALTGKMWAYEHYGIIPDLISFGKKSQVCGVLAHREKFDRVEKHVFKESSRINSTFGGNLVDMMRFKLILEVIEQENLVQQAESLGEYLLEKLEQLAKRHSQLSNVRGKGLLASFDFQTEQQRDEFVKRAMNNKLLILGCGDKSIRFRPHLTVTVEQLDKALALVEKSL
modifications: Sphingobacterium spiritivorum ATCC 33861
notes: Sphingobacterium spiritivorum ATCC 33861 aminotransferase
B5: SEQ ID NO: 175: Tepidicaulis marinus aminotransferase (protein, listed as Tepidicaulis marinus)
chain: MSQTAQISNQTRRWQEMDARHHVHPFSDQAALAKKGARVITHAEGVYLYDSEGHKIIDGMAGLWCVNVGYGRSELAEAGYKALKELPYYNTFFQTTNPYTAELGERLAEVTPDGLDRFFFANSGSEANDSMVKIIRYYWSLQGKPEKKVFISRKQAYHGVTMTAASLSGISAMHPQAGLPLPNHAHIDFPYWYGMGGDMDPNEFGVHIAMKLEEKILEIGAENVAAFVAEPVQGAGGLIIPPDSYWPVIQEICHKYDILLHADEVICGFGRTGNWFGSHTYGIVPDTMAMAKGMTSGYQPLSAVALGPRVGDALHNSGEEWSHGFTYSGHPVASAVALANLDVLQKDKLVEKAGGETGEHFLKHLHALADHPIVGETRGVGLLGAIELVKDKKTRERFEGDTGGLCRDHCFENDLIMRAIGNTMVLSPPLSITKAELDELFTLARKALDATAKDLGAM
B6: SEQ ID NO: 178: Defluviimonas sp. 20V17 aminotransferase (protein)
chain: MNELSNSVAHADITTILHPYTDARMHEQKGPLVIEKGDGVHVIDQSGKRYIEAMSGLWSVAVGFSQTRLRDAAAAQMEKLPYYHTFASKSHEPSVRLAEKLVEMTPENLTRVFYTSSGSEANDTVIKLVWYMNNALGRPQKKKFLARNKAYHGITIASGSLTGLPGNHRDFDLPAIPVVHLTCPHLYRFGQEGETEAQFCARLLKEAEDTILAEGPETIAAFIGEPVMGAGGVMVPPEGYWQGIEALCRKYDILLVSDEVINGFGRTGARWGCEKMGFTPDILVTSKQLTSSYMPLAAIVFSEDIYNVIADNTHKLGGFGHGFTASGHPVACAVGLENLAIIEEQGLMENAAKMGERLQAGLAKLADHPLVGEVRGTGLIAAVELVADKATKRPFDPVGKVGGKVFEYGHEEGVIFRNLGDSIAVCPPLIVTEHDVDEIVRLMGIAIDRAADWARAEGLVA
modifications: Defluviimonas sp. 20V17
notes: Defluviimonas sp; 20V17 aminotransferase
B7: SEQ ID NO: 181: Bradyrhizobium sp. DOA9 aminotransferase (protein)
chain: MVAKQLSNSLAHADISATLHPYTNARAHERQGPVIIDRGEGIYVYDDAGKEYIEGLAGLWSVAIGFDEPRIVEVAAAQMAKLPYYHTFSHKSHEPSIRLAEKLVGMTPEPLSRVFFTSSGSEANDTMIKMVWYMNNALGRPKKKKFLARHRAYHGVTVASGSLTGLPNNHKDFDLPVIPVRHLTCPHFYRFAQTEETEAEFSARLVSEAEATILEEGPDTIAAFVGEPLMAAGGVMPPPKGYWQGIEALCRKYDILLVADEVICGLGRLGTRFGCEHYHFTPDIMIVSKQLTSSYMPLAAVIFSETIYNAIADNTAKIGTFGHGFTASGHPVATAVALENLKIIEERDLVGNAARMGRILQARLGELAAHPLVGEVRGVGLIAGIELVSEKHTRRPFASAGEVGAAAFAAAQRHGLIVRAIGDTIALCPPLIINEDQVHELVARLGDALDDTAQWRSAENLN
modifications: Bradyrhizobium sp. DOA9
notes: Bradyrhizobium sp; DOA9 aminotransferase
B8: SEQ ID NO: 173: Methylobacterium aquaticum aminotransferase (protein, listed as Methylobacterium aquaticum)
chain: MLSNLATRDVETLIHPYTNLAAFRQTGPLVLERGHGVWVYDTDGRPYLEGMAGLWCTALGYSNEELVEAAREQMSRLPFTHLFSGRSHDPAIELAETLKELAPIPVSKVFFTSSGSEANDTQVKLTWYLNNALGRPQKKKIIGRHKGYHGVTVASASLTGLTANHADWDLPLPGFLHAACPHHYRGAEAGETEEAYSARLATELEEMILREGPETVAAFIAEPVMGAGGAIVPPKGYFAAIEPVLARYDVRFIADEVICGFGRLGTWFGSEALGMKPHSLSFAKALTSAYMPLGGVTVDETLYQAMQDQSRKIGTFGHGTTYSGHPVASAVALKTIEIYRRDKIIEGAAEKAPHFQRRLSALEEHPLVGEAKGMGLIGGLEIVADKATKRQYDPKAGVAARCVAFAQEEGLIVRFLTGDRVAVCPPLVIRPDEIDTLFDRLGTALDRTQAWIREQGLTAA
B9: SEQ ID NO: 177: Pseudooceanicola batsensis aminotransferase (protein, listed as Pseudooceanicola batsensis)
chain: MKDDNFLKEHNARALWHPMGAPGDSMANPPVIISSASGSRIRDIDGHETVDGVGGLWCANLGYSNDAVKEAIAKQLHELPYYSAFAGCTNPSAIEASVAVQEFFAEDGIGRVFFTSGGSDSVDTCLRLARQYHQVKGAPTRTKFLSLKKGYHGTHFGGASVNGNNRFRIGYEPLLPGCFHLTAPHAYRNPYDEADPAALARKIAAEMVDEIEFQGPETIAAFIMEPILGAGGVIVPDPTFMGLMREICTRYGILMIADEVICGFGRTGDWTGSRHWGVRPDMMSVAKGITSAYFPVGAALISEEVAEVFEKDTSGAAAIWHGYTYSAHPVGAAAVTACLSETLRLDTRTNAAARGTQLYQGLLGLKEKYDIIGDVRGGHGLMTAIEFVTDRAKKTPMDAATVKTIHSRVYEAGAMVRPAPPNLLMSPPLIITEAEVRTIIEALDTAIGSV
modifications: Pseudooceanicola batsensis (strain ATCC BAA-863 / DSM 15984 / KCTC 12145 / HTCC2597)
notes: Pseudooceanicola batsensis aminotransferase

Assay: In vivo aminotransferase activity screening, 7-aminoheptanoate by LC-MS
Type: cell-based, Escherichia coli
Conditions: in vivo conversion of 7-oxoheptanoate to 7-aminoheptanoate, 120 aminotransferases screened
Experimental: A 165-member aminotransferase library from Twist on IPTG-inducible T7- pUC expression vectors was co-transformed into T7 Express lysY/Iq with a constitutive expression pJ23150-derived plasmid bearing the phosphopantetheinyl transferase sfp from Bacillus subtilis, CAR_Srot from Invista and BioC from Serratia marcescens (UniprotKB Accession No. P36571 (SEQ ID NO: 165)). The resulting strains were incubated in 0.5 ml of rich media (terrific broth or LB containing 8% glycerol) supplemented with 0.4 mM IPTG and received 1 g/L monomethyl heptanedioate, 1 g/L heptanedioate, or no organic acid addition, depending on the experiment. Following incubation overnight at 37° C. in a shaking incubator, cells were pelleted and the supernatants were analyzed using LC-MS for 7-aminoheptanoate or monomethyl 7-aminoheptanoate. A Vibrio fluvialis aminotransferase (UniProtKB Accession No. F2XBU9 (SEQ ID NO: 128)) was used as a positive control.

Which “7-aminoheptanoate yield compared to the positive control (F2XBU9)” value does the source give for B1 here?
The value was “higher 7-aminoheptanoate yields”.

Which “7-aminoheptanoate yield compared to the positive control (F2XBU9)” value does the source give for B2 here?
Its value is “higher 7-aminoheptanoate yields”.

With B3 as the molecule, how does the “7-aminoheptanoate yield compared to the positive control (F2XBU9)” value read?
Its value is “higher 7-aminoheptanoate yields”.

For B4, which “7-aminoheptanoate yield compared to the positive control (F2XBU9)” value is on record?
The value was “higher 7-aminoheptanoate yields”.

With B5 as the molecule, how does the “7-aminoheptanoate yield compared to the positive control (F2XBU9)” value read?
The value was “higher 7-aminoheptanoate yields”.

For B6, which “7-aminoheptanoate yield compared to the positive control (F2XBU9)” value is on record?
The value was “higher 7-aminoheptanoate yields”.

With B7 as the molecule, how does the “7-aminoheptanoate yield compared to the positive control (F2XBU9)” value read?
Its value is “higher 7-aminoheptanoate yields”.

For B8, which “7-aminoheptanoate yield compared to the positive control (F2XBU9)” value is on record?
Its value is “higher 7-aminoheptanoate yields”.

With B9 as the molecule, how does the “7-aminoheptanoate yield compared to the positive control (F2XBU9)” value read?
The value was “higher 7-aminoheptanoate yields”.
